The values below come from patent US20260070986A1 (AFFIMED, published 2026).

For experiment [1], the target named is T1, recombinant human neonatal Fc receptor (FcRn), biotinylated (human, UniProt P55899 24-297, site-directed biotinylation at AviTag).
T1 construct: also called human FcRn
The experiment in a line: SPR (Biacore), 37 °C, pH 6.0, biotin-captured human FcRn as ligand, steady-state affinity fit. The procedure:
Affinity parameters were evaluated for interaction with human FcRn, cynomolgus FcRn or murine FcRn using a Steady State Binding model (D-F).

The target of experiment [2] is T2, recombinant human FcγRIIC (CD32C), biotinylated (human, UniProt P31995 43-223, limits assumed, site-directed biotinylation at AviTag).
T2 construct: also called human CD32C
T2 sequence (looked up): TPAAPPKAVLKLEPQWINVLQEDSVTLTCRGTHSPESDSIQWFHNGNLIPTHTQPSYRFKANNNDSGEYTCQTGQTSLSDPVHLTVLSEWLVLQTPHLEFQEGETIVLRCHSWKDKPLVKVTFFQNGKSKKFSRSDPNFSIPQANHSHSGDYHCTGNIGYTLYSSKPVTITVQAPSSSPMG
Kind of experiment: SPR (Biacore), 37 °C, biotin-captured human CD32C as ligand, steady-state plot; left-hand column, no heading on the sheet. How it is done: FIG. 21: SPR interaction analysis of antibody binding to CD32. […] Affinity parameters were evaluated for interaction with receptors using a Steady State Binding model.

T1 sequence (P55899 24-297 limits assumed, form in doubt): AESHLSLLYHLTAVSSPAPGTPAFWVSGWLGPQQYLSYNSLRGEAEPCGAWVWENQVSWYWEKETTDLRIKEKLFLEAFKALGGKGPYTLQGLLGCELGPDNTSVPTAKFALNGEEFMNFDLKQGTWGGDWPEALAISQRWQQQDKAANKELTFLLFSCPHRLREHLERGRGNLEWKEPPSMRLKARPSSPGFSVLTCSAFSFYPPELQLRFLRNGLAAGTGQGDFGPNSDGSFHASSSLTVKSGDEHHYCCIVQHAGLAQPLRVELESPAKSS

B1: scFv-IgAb_268 (CD123-1xCD16a1) (bispecific antibody)
heavy: QVQLQQSGAEVKKPGASVKVSCKASGYTFTDYYMKWVKQSHGKSLEWMGDIIPSNGATFYNQKFKGKATLTVDRSTSTAYMELSSLRSEDTAVYYCARSHLLRASWFAYWGQGTLVTVSSASTKGPSVFPLAPSSKSTSGGTAALGCLVKDYFPEPVTVSWNSGALTSGVHTFPAVLQSSGLYSLSSVVTVPSSSLGTQTYICNVNHKPSNTKVDKKVEPKSCDKTHTCPPCPAPEFEGGPSVFLFPPKPKDTLMISRTPEVTCVVVAVSHEDPEVKFNWYVDGVEVHNAKTKPREEQYNSTYRVVSVLTVLHQDWLNGKEYKCKVSNKALPAPIEKTISKAKGQPREPQVYTLPPSREEMTKNQVSLTCLVKGFYPSDIAVEWESNGQPENNYKTTPPVLDSDGSFFLYSKLTVDKSRWQQGNVFSCSVMHEALHNHYTQKSLSLSPGGGGGSGGGGSGGGGSGGGGSGGGGSGGGGSSYELTQPLSVSVALGQTARITCGGNNIGSKSVHWYQQKPGQAPVLVIYQDKKRPSGIPERFSGSNSGNTATLTISRAQAGDEADYYCQVWDDYIVLFGCGTKLTVLGGSGGSGGSGGSGGSGGSGGSQVQLVQSGAEVKKPGASVKVSCKASGYTFTNYYMQWVRQAPGQCLEWMGIINPSGGVTSYAQKFQGRVTMTRDTSTSTVYMELSSLRSEDTAVYYCARGSAYYYDFADYWGQGTLVTVSS
light: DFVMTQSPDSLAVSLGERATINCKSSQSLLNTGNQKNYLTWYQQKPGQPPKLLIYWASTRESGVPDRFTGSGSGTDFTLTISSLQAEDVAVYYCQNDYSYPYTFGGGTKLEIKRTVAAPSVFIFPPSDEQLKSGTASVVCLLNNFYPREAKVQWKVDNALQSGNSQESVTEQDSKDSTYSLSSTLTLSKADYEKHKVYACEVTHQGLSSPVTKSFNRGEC
notes: also called AFM28; CD123xCD16A scFv-IgAb_268
In the case of B1, in experiment [1], the dissociation constant (Kd) was determined as 364 nM. In experiment [2], the binding result is listed as “no binding”.
